T1: GPVI on human platelets (human, UniProt Q9HCN6 21-339)
T1 construct: whole, on cells
T1 sequence (looked up): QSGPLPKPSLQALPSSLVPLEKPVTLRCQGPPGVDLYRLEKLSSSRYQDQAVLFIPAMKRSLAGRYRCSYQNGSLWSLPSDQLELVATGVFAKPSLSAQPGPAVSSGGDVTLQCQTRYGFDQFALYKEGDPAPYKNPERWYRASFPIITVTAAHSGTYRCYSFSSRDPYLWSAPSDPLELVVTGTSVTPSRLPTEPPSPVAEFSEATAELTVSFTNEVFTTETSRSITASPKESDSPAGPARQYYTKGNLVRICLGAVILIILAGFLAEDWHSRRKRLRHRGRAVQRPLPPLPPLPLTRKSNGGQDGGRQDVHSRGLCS

B1: F1232-37-2 (antibody, V domains shown)
VH: VQLQQSGPELVRPGESVKISCKGSGYTFTDYAIHWVKLSHAKSLEWIGVISIYYDDTNYNQKFKGKATMTVDKSSSTAYLELARLTSEDSAIYYCARRRDSSGPYAMDYWGQGTSVTVSS
VL: DIVLTQSPASLAVSLGQRATISCRASESVDSYGNSFMHWYQQKPGQPPKLLIYRASNLESGIPARFSGSGSRTDFTLTINPVEADDVATYYCQQSNEDPYTFGGGTKLEIKR
notes: mouse monoclonal antibody from hybridoma; also called F1232-37-2 (whole antibody)
B2: F1201-18 (antibody, V domains shown)
VH: VQLVESGGGLVKPGGSLKLSCAASGFTFSSYAMSWVRQTPEKRLEWVAIISSGGSYTYYPDSVKGRFTISRDNAKNTLYLHMSSLRSEDTAMYYCARQGGGYFDYWGQGTTLTVSS
VL: DIVLTQSPASLAVSLGQRATISCRASESVDSYGNSFMHWYQQKPGQPPKLLIYRASNVESGIPARFSGSGSRTDFTLTINPVEADDVATYYCQQSNEDPPTFGAGTKLELKR
notes: mouse monoclonal antibody from hybridoma
B3: F1232-17-1 (antibody, V domains shown)
VH: VQLVESGGDLVKPGGSLKLSCAASGFTFSSYGMSWVRQTPDKRLEWVATISSGGSYTYYPDNVKGRFTISRDNAKNTLYLQMSSLNSEDTAMYYCARQVYYFGSCDYWGQGTTLTVSS
VL: DIVLTQSPASLAVSLGQRATISCRASESVDNYGISFMHWYQQKPGQPPKLLIYRASNLESGIPARFSGSGSRTDFTLTINPVETDDVATYYCQQSNKDPWTFGGGTKLEIKR
notes: as for B2
B4: F1232-18-3 (antibody, V domains shown)
VH: VMLVESGGGLVKPGGSLKLSCAASGFTFSSYAMSWVRQTPEKRLEWVATISSGGSYTYYPDSVKGRFTISRDNAKNTLYLQMSSLRSADTAMYYCARDYGYFDYWGQGTTLTVSS
VL: DIVLTQSPASLAVSLGQRATISCRASESVDNYGISFMHWYQQKPGQPPKLLFYRASNLESGIPARFSGSGSRTDFTLTINPVETDDVATYYCQQSNTDPRTFGGGTKLEIKR
notes: as for B2
B5: F1232-24-1 (antibody, V domains shown)
VH: VQLQQSGAELVRPGVSVKISCKGSGYTFTDYAMHWVKQSHAKSLEWIGVISTYYGDASYNQKFKGKATMTVDKSSSTAYMELARLTSEDSAIYYCARSYDYDPWFAYWGQGTLVTVSA
VL: DIVLTQSPASLAVSLGQRATISCRASESVDNYGISFMHWYQQKPGQPPKLLIYRASNLESGIPARFSGSGSRTDFTLTINPVETDDVATYYCQQSNKDPLTFGAGTKLELKR
notes: as for B2
B6: cF1232-37-2/CHO (antibody, V domains shown)
VH: VQLQQSGPELVRPGESVKISCKGSGYTFTDYAIHWVKLSHAKSLEWIGVISIYYDDTNYNQKFKGKATMTVDKSSSTAYLELARLTSEDSAIYYCARRRDSSGPYAMDYWGQGTSVTVSS
VL: DIVLTQSPASLAVSLGQRATISCRASESVDSYGNSFMHWYQQKPGQPPKLLIYRASNLESGIPARFSGSGSRTDFTLTINPVEADDVATYYCQQSNEDPYTFGGGTKLEIKR
notes: also called cF1232-37-2 expressed by CHO cells
B7: F1232-7-1 (antibody, V domains shown)
VH: VQLQQSGPELVRPGESVKISCKGSGYTFTDYAIHWVKLSHAKSLEWIGVISIYYDDTNYNQKFKGKATMTVDKSSSTAYMELARLTSEDSAIYYCARRRDSSGPYAMDYWGQGTSVTVSS
VL: DIVLTQSPASLAVSLGQRATISCRASESVDSYGNSFMHWYQQKPGQPPKLLIYRASNLESGIPARFSGSGSRTDFTLTINPVEADDVATYYCQQSNEDPYTFGGGTKLEIKR
notes: as for B2
B8: F1249-3-2 (antibody, V domains shown)
VH: EVQLVESGGGLVKPGGSLKLSCAASGFTFSSYGMSWVRQTPDKRLEWVATISSGGSYTYYSDSVKGRFTISRDNAKNNLYLQLSSLKSQDTAIYYCARDSGYFDYWGQGTTLTVSS
VL: NIVLTQSPASLAVSLGQRATISCRASESVDSYGNSFMHWYQQKPGQPPKLLIYLASNLESGVPARFSGSGSRTDFTLTIDPVEADDAATYYCQQNNEDPRTFGGGTKLEIKR

How the values were obtained:
[1] = target: T2, human GPVI extracellular region-human Fc fusion protein (hGPVI-hFc) (human); assay: SPR (BIACORE3000) as in Example 5
T2 construct: expressed in COS-1, Protein A purified; also called GPVI-HHH-hFc; hGPVIHHH-hFc

[2] = target: T2, human GPVI extracellular region-human …; assay: SPR (BIACORE3000), GPVI-hFc coupled to CM5 chip, antibody 1.25-40 nM, bivalent analyte fit
Target sequence in this assay (chain, as listed by the source limits assumed): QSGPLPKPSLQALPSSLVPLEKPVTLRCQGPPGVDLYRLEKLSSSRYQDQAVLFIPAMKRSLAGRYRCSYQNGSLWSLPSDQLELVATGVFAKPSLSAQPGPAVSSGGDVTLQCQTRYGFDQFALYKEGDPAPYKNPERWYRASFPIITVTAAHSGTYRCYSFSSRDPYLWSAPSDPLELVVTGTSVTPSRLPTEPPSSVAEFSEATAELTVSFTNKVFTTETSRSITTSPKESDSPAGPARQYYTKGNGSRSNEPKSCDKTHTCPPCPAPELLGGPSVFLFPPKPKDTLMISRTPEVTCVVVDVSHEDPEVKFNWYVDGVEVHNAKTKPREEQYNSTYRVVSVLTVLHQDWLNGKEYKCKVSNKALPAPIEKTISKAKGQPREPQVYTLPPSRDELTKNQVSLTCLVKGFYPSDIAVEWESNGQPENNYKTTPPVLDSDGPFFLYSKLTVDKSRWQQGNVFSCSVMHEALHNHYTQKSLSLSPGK

[3] = target: cynomolgus monkey D1D2-human D3 chimeric GPVI-human Fc fusion protein (GPVI-FFH-hFc) (cynomolgus monkey (D1, D2) and human …); assay: as above
Chain of cynomolgus monkey D1D2-human D3 chimeric GPVI-human Fc fusion protein (GPVI-FFH-hFc) (cynomolgus monkey (D1, D2) and human …) (chain, as listed by the source mutant limits assumed): as the sequence (chain, as listed by the source limits assumed) above, with S2R, S61H, L78P, R166G, V181M, P442S counted along it

GPVI on human platelets = target: T1, GPVI on human platelets; assay: homologous competitive binding of [125I]-labeled and non-labeled antibody on washed human platelets (n=3, mean±S.E.)
[4] = target: T3, GPVI on cynomolgus monkey platelets (cynomolgus monkey, UniProt A0A2K5VXN2 21-318); assay: homologous competitive binding of [125I]-labeled and non-labeled antibody on washed cynomolgus platelets (n=3, mean±S.E.)
T3 construct: whole, on cells; also called simian platelets
T3 sequence (A0A2K5VXN2 entry or part of it): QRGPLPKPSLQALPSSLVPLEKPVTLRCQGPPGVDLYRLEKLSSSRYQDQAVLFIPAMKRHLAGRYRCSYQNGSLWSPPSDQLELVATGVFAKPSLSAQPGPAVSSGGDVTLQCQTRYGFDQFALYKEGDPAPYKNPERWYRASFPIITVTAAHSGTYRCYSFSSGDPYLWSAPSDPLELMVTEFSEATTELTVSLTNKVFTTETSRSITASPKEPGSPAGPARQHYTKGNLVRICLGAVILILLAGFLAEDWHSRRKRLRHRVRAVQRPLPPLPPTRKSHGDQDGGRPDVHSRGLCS

Row | KD (Relative value) against F1232-37-2 [1] | Kd [2] [nM] | Kd [3] [nM] | Kd (GPVI on human platelets) [nM] | Kd [4] [nM] | Binder
1 | 1 relative to KD of F1232-37-2 | 0.403 | 1 | – | – | B1
2 | – | 1.16 | – | – | – | B2
3 | – | 0.522 | 0.177 | – | – | B3
4 | – | 1.65 | 365 | – | – | B4
5 | – | 0.25 | 0.71 | – | – | B5
6 | – | – | – | 17 | 20 | B6
7 | – | – | 343 | – | – | B7
8 | 1.59 relative to KD of F1232-37-2 | – | – | – | – | B8
